Laboratory results published in article PMC3875342.

Molecular target: DP10.7 TCR (Vγ4Vδ1), soluble recombinant γδ TCR (human)
Assay: SPR

KD without sulfatide (CD1d loaded with 24:1 βGalCer): > 100 µM
Substance: soluble, recombinant human CD1d (heterodimer with β2-microglobulin) (from UniProt P15813 20-301; P61769 21-119) (complex)
